First the molecules themselves.
B1: POU domain, class 6, transcription factor 2, residues 609 to 663; numbered along this chain, P78424 (parent)
chain: KRRTSFTPQALEILNAHFEKNTHPSGQEMTEIAEKLNYDREVVRVWFCNKRQALK

± gives the uncertainty stated by the source.

The variants in this series derive from B1. Nature of the series: abundance fitness (aPCA) (normalised: wild type 0, dead -1); higher = more abundant; growth selection in yeast, the domain comes from the species named. The conditions noted are these: Homo sapiens.
As to KRRTSFTPQALEILVAHFEKNTHPSGQEMTEIAEKLNYDREVVRVWFCNKRQALK [N15V], the abundance fitness is -0.307 ± 0.087.

In the case of KRRTSFTPQALEILLAHFEKNTHPSGQEMTEIAEKLNYDREVVRVWFCNKRQALK [N15L], the abundance fitness is -0.15 ± 0.093.

As for KRRTSFTPQALEILCAHFEKNTHPSGQEMTEIAEKLNYDREVVRVWFCNKRQALK [N15C], the abundance fitness is -0.086 ± 0.13.

As for KRRTSFTPQALEILKAHFEKNTHPSGQEMTEIAEKLNYDREVVRVWFCNKRQALK [N15K], the abundance fitness was -0.13 ± 0.14.

For KRRTSFTPQALEILRAHFEKNTHPSGQEMTEIAEKLNYDREVVRVWFCNKRQALK [N15R], the abundance fitness was -0.217 ± 0.084.

Regarding KRRTSFTPQALEILTAHFEKNTHPSGQEMTEIAEKLNYDREVVRVWFCNKRQALK [N15T], the abundance fitness is -0.217 ± 0.13.

On to KRRTSFTPQALEILAAHFEKNTHPSGQEMTEIAEKLNYDREVVRVWFCNKRQALK [N15A], for which the abundance fitness is -0.247 ± 0.11.

As for KRRTSFTPQALEILFAHFEKNTHPSGQEMTEIAEKLNYDREVVRVWFCNKRQALK [N15F], the abundance fitness is -0.543 ± 0.33.

Consider KRRTSFTPQALEILPAHFEKNTHPSGQEMTEIAEKLNYDREVVRVWFCNKRQALK [N15P], for which the abundance fitness is -0.378 ± 0.23.

For KRRTSFTPQALEILMAHFEKNTHPSGQEMTEIAEKLNYDREVVRVWFCNKRQALK [N15M], the abundance fitness is -0.132 ± 0.11.

Take KRRTSFTPQALEILQAHFEKNTHPSGQEMTEIAEKLNYDREVVRVWFCNKRQALK [N15Q]: the abundance fitness was -0.281 ± 0.11.

In the case of KRRTSFTPQALEILDAHFEKNTHPSGQEMTEIAEKLNYDREVVRVWFCNKRQALK [N15D], the abundance fitness was -0.093 ± 0.15.

As for KRRTSFTPQALEILIAHFEKNTHPSGQEMTEIAEKLNYDREVVRVWFCNKRQALK [N15I], the abundance fitness was -0.78 ± 0.38.

Consider KRRTSFTPQALEILWAHFEKNTHPSGQEMTEIAEKLNYDREVVRVWFCNKRQALK [N15W], for which the abundance fitness was -0.361 ± 0.11.

For KRRTSFTPQALEILHAHFEKNTHPSGQEMTEIAEKLNYDREVVRVWFCNKRQALK [N15H], the abundance fitness is -0.085 ± 0.16.

Turning to KRRTSFTPQALEILYAHFEKNTHPSGQEMTEIAEKLNYDREVVRVWFCNKRQALK [N15Y], the abundance fitness was -0.615 ± 0.24.

Turning to KRRTSFTPQALEILSAHFEKNTHPSGQEMTEIAEKLNYDREVVRVWFCNKRQALK [N15S], the abundance fitness is -0.193 ± 0.12.

Turning to KRRTSFTPQALEILNLHFEKNTHPSGQEMTEIAEKLNYDREVVRVWFCNKRQALK [A16L], the abundance fitness is -0.054 ± 0.066.

For the variant KRRTSFTPQALEILNVHFEKNTHPSGQEMTEIAEKLNYDREVVRVWFCNKRQALK [A16V], the abundance fitness is -0.078 ± 0.06.

Turning to KRRTSFTPQALEILNFHFEKNTHPSGQEMTEIAEKLNYDREVVRVWFCNKRQALK [A16F], the abundance fitness was -0.091 ± 0.1.

As for KRRTSFTPQALEILNDHFEKNTHPSGQEMTEIAEKLNYDREVVRVWFCNKRQALK [A16D], the abundance fitness turned out to be 0.113 ± 0.094.

For the variant KRRTSFTPQALEILNCHFEKNTHPSGQEMTEIAEKLNYDREVVRVWFCNKRQALK [A16C], the abundance fitness was -0.164 ± 0.087.

Turning to KRRTSFTPQALEILNQHFEKNTHPSGQEMTEIAEKLNYDREVVRVWFCNKRQALK [A16Q], the abundance fitness is 0.019 ± 0.12.

As to KRRTSFTPQALEILNKHFEKNTHPSGQEMTEIAEKLNYDREVVRVWFCNKRQALK [A16K], the abundance fitness was -0.044 ± 0.1.

In the case of KRRTSFTPQALEILNHHFEKNTHPSGQEMTEIAEKLNYDREVVRVWFCNKRQALK [A16H], the abundance fitness worked out at 0.044 ± 0.17.

Turning to KRRTSFTPQALEILNMHFEKNTHPSGQEMTEIAEKLNYDREVVRVWFCNKRQALK [A16M], the abundance fitness was found to be 0.016 ± 0.09.

For the variant KRRTSFTPQALEILNNHFEKNTHPSGQEMTEIAEKLNYDREVVRVWFCNKRQALK [A16N], the abundance fitness stood at 0.02 ± 0.12.

For KRRTSFTPQALEILNRHFEKNTHPSGQEMTEIAEKLNYDREVVRVWFCNKRQALK [A16R], the abundance fitness was -0.084 ± 0.052.

On to KRRTSFTPQALEILNGHFEKNTHPSGQEMTEIAEKLNYDREVVRVWFCNKRQALK [A16G], for which the abundance fitness is -0.049 ± 0.05.

Regarding KRRTSFTPQALEILNEHFEKNTHPSGQEMTEIAEKLNYDREVVRVWFCNKRQALK [A16E], the abundance fitness was -0.002 ± 0.076.

On to KRRTSFTPQALEILNIHFEKNTHPSGQEMTEIAEKLNYDREVVRVWFCNKRQALK [A16I], for which the abundance fitness is -0.183 ± 0.13.

On to KRRTSFTPQALEILNSHFEKNTHPSGQEMTEIAEKLNYDREVVRVWFCNKRQALK [A16S], for which the abundance fitness is -0.16 ± 0.073.

Take KRRTSFTPQALEILNWHFEKNTHPSGQEMTEIAEKLNYDREVVRVWFCNKRQALK [A16W]: the abundance fitness was -0.164 ± 0.065.

For the variant KRRTSFTPQALEILNPHFEKNTHPSGQEMTEIAEKLNYDREVVRVWFCNKRQALK [A16P], the abundance fitness was -0.865 ± 0.21.

With KRRTSFTPQALEILNYHFEKNTHPSGQEMTEIAEKLNYDREVVRVWFCNKRQALK [A16Y], the abundance fitness was -0.151 ± 0.12.

Regarding KRRTSFTPQALEILNAHVEKNTHPSGQEMTEIAEKLNYDREVVRVWFCNKRQALK [F18V], the abundance fitness was -0.713 ± 0.081.

As to KRRTSFTPQALEILNAHIEKNTHPSGQEMTEIAEKLNYDREVVRVWFCNKRQALK [F18I], the abundance fitness was -0.562 ± 0.31.

Take KRRTSFTPQALEILNAHMEKNTHPSGQEMTEIAEKLNYDREVVRVWFCNKRQALK [F18M]: the abundance fitness is -0.76 ± 0.15.

As for KRRTSFTPQALEILNAHGEKNTHPSGQEMTEIAEKLNYDREVVRVWFCNKRQALK [F18G], the abundance fitness is -0.848 ± 0.063.

For KRRTSFTPQALEILNAHPEKNTHPSGQEMTEIAEKLNYDREVVRVWFCNKRQALK [F18P], the abundance fitness is -1.07 ± 0.32.

Take KRRTSFTPQALEILNAHREKNTHPSGQEMTEIAEKLNYDREVVRVWFCNKRQALK [F18R]: the abundance fitness was -0.856 ± 0.074.

Consider KRRTSFTPQALEILNAHCEKNTHPSGQEMTEIAEKLNYDREVVRVWFCNKRQALK [F18C], for which the abundance fitness was -0.522 ± 0.11.

For the variant KRRTSFTPQALEILNAHTEKNTHPSGQEMTEIAEKLNYDREVVRVWFCNKRQALK [F18T], the abundance fitness is -0.961 ± 0.21.

Turning to KRRTSFTPQALEILNAHQEKNTHPSGQEMTEIAEKLNYDREVVRVWFCNKRQALK [F18Q], the abundance fitness was -0.937 ± 0.24.

For the variant KRRTSFTPQALEILNAHSEKNTHPSGQEMTEIAEKLNYDREVVRVWFCNKRQALK [F18S], the abundance fitness was -0.593 ± 0.091.

Consider KRRTSFTPQALEILNAHKEKNTHPSGQEMTEIAEKLNYDREVVRVWFCNKRQALK [F18K], for which the abundance fitness is -0.927 ± 0.19.

In the case of KRRTSFTPQALEILNAHHEKNTHPSGQEMTEIAEKLNYDREVVRVWFCNKRQALK [F18H], the abundance fitness is -0.698 ± 0.2.

In the case of KRRTSFTPQALEILNAHNEKNTHPSGQEMTEIAEKLNYDREVVRVWFCNKRQALK [F18N], the abundance fitness was -1.06 ± 0.26.

For the origin of these results see the Human Domainome abundance scans (Beltran et al. 2025).
